Patent publication US20020157122

What was measured:
[1] = target: T1, humanized wild type APP (hAPPwt), P12023
T1 chain: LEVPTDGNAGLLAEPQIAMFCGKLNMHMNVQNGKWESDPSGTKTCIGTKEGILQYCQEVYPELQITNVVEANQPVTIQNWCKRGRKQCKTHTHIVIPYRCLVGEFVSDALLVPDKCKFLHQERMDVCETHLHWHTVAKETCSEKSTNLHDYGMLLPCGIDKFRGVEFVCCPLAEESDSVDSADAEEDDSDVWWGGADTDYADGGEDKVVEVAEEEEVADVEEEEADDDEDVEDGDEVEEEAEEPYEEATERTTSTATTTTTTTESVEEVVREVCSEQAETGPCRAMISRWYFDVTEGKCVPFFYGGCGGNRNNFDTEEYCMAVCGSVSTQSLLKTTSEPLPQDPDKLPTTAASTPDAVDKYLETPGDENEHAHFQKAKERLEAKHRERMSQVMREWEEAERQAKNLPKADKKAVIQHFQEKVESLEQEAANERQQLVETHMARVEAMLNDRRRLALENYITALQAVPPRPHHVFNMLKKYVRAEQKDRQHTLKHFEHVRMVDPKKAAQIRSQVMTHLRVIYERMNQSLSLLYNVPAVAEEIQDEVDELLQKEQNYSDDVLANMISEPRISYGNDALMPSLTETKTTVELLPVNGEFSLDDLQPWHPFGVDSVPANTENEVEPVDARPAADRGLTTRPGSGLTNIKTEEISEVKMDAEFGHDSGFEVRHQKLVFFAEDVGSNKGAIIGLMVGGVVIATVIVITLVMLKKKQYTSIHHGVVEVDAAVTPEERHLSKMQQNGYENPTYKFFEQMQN

[2] = target: humanized APP bearing the Swedish variant (a murine APP in which the Aβ1-42 region corresponds to the human Aβ1-42), P12023
[3] = target: hAPP717 (variant of humanized APP), P12023
[4] = target: T2, mouse APP (endogenous β-amyloid precursor protein), P12023
T2 chain: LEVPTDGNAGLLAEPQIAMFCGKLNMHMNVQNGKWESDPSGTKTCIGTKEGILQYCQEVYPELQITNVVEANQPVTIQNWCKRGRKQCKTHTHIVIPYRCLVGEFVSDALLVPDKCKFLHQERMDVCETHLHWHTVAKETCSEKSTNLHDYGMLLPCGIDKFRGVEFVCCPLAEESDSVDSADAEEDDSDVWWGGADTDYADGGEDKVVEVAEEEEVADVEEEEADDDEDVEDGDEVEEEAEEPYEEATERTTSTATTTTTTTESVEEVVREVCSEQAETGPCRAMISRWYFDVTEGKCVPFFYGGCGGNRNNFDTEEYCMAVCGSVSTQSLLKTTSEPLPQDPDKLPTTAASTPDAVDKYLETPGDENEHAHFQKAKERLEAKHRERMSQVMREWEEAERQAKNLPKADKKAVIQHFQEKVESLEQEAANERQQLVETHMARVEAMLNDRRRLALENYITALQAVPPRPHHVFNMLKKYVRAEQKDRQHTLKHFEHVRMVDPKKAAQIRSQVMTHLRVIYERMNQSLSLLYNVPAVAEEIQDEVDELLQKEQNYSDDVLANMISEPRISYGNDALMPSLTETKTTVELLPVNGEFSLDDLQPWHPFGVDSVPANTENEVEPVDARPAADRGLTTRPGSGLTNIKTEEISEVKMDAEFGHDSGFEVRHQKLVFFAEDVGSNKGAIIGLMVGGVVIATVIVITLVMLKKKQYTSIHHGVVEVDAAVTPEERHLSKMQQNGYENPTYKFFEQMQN

B1: human BACE1 (full-length, expressed from recombinant adenovirus) (protein)
chain: ETDEEPEEPGRRGSFVEMVDNLRGKSGQGYYVEMTVGSPPQTLNILVDTGSSNFAVGAAPHPFLHRYYQRQLSSTYRDLRKGVYVPYTQGKWEGELGTDLVSIPHGPNVTVRANIAAITESDKFFINGSNWEGILGLAYAEIARPDDSLEPFFDSLVKQTHVPNLFSLQLCGAGFPLNQSEVLASVGGSMIIGGIDHSLYTGSLWYTPIRREWYYEVIIVRVEINGQDLKMDCKEYNYDKSIVDSGTTNLRLPKKVFEAAVKSIKAASSTEKFPDGFWLGEQLVCWQAGTTPWNIFPVISLYLMGEVTNQSFRITILPQQYLRPVEDVATSQDDCYKFAISQSSTGTVMGAVIMEGFYVVFDRARKRIGFAVSACHVHDEFRTAAVEGPFVTLDMEDCGYNIPQTDESTLMTIAYVMAAICALFMLPLCLMVCQWRCLRCLRQQHDDFADDISLLK
+11 derived β-CTF in neurons (immunoprecipitation with CT15) [1]: when neurons co-expressing human BACE1 and hAPPwt or hAPPswe or hAPP717 there is secreted a peptide corresponding to the +11 derived β-CTF (+11-CTF) in addition to the +1 derived β-CTF | secretion of human Aβ11-40 (IP-MS of conditioned media with 4G8) [1]: now revealed the secretion of human Aβ11-40 peptide in addition to the murine Aβ11-40 peptide from murine neurons co-expressing human BACE1 and hAPPwt | +11 derived β-CTF in neurons (immunoprecipitation with CT15) [2]: when neurons co-expressing human BACE1 and hAPPwt or hAPPswe or hAPP717 there is secreted a peptide corresponding to the +11 derived β-CTF (+11-CTF) in addition to the +1 derived β-CTF | secretion of Aβ peptides into culture medium of BACE1 deficient astrocytes [2]: BACE1 deficient astrocytes co-infected with adenoviruses expressing both APPswe and BACE1 restored the ability to secrete Aβ peptides into culture medium | secretion of human Aβ11-40 (IP-MS of conditioned media with 4G8) [2]: The human Aβ11-40 peptides are also secreted by primary neurons co expressing human BACE1 and hAPPswe or hAPP717 | +11 derived β-CTF in neurons (immunoprecipitation with CT15) [3]: when neurons co-expressing human BACE1 and hAPPwt or hAPPswe or hAPP717 there is secreted a peptide corresponding to the +11 derived β-CTF (+11-CTF) in addition to the +1 derived β-CTF | secretion of human Aβ11-40 (IP-MS of conditioned media with 4G8) [3]: The human Aβ11-40 peptides are also secreted by primary neurons co expressing human BACE1 and hAPPswe or hAPP717

B2: mouse BACE1 (endogenous, beta-site APP-cleaving enzyme 1) (protein)
chain: ETDEESEEPGRRGSFVEMVDNLRGKSGQGYYVEMTVGSPPQTLNILVDTGSSNFAVGAAPHPFLHRYYQRQLSSTYRDLRKGVYVPYTQGKWEGELGTDLVSIPHGPNVTVRANIAAITESDKFFINGSNWEGILGLAYAEIARPDDSLEPFFDSLVKQTHIPNIFSLQLCGAGFPLNQTEALASVGGSMIIGGIDHSLYTGSLWYTPIRREWYYEVIIVRVEINGQDLKMDCKEYNYDKSIVDSGTTNLRLPKKVFEAAVKSIKAASSTEKFPDGFWLGEQLVCWQAGTTPWNIFPVISLYLMGEVTNQSFRITILPQQYLRPVEDVATSQDDCYKFAVSQSSTGTVMGAVIMEGFYVVFDRARKRIGFAVSACHVHDEFRTAAVEGPFVTADMEDCGYNIPQTDESTLMTIAYVMAAICALFMLPLCLMVCQWRCLRCLRHQHDDFADDISLLK
secretion of Aβ peptides (IP-MS of conditioned media with 4G8) [1]: the human and murine Aβ1-40 and Aβ1-42 were secreted, however, the human Aβ11-40 peptide was not secreted into culture media from murine primary neurons infected with adenovirus expressing hAPPwt | secretion of Aβ peptides from primary cortical neurons (IP-MS of conditioned media with 4G8) [4]: secretion of these Aβ species is abolished from BACE1-/- neurons except for the Aβ 17-40 (p3) fragment | Aβ1-40 and Aβ1-42 in conditioned media of astrocytes (Aβ ELISA) [2]: Aβ1-40 and Aβ1-42 were easily detected from BACE1+/+ and BACE1+/- astrocyte cultures by Aβ ELISA assay, but were not detectable from BACE1-/- cultures | Aβ1-40 and Aβ1-42 in conditioned media of neurons (quantitative sandwich ELISA) [2]: showed high levels of Aβ1-40 and Aβ1-42 while undetectable levels of Aβ1-40 and Aβ1-42 were observed from media of BACE1-/- cultures expressing APPswe

B3: BACE2 (endogenous, in cultured mouse astrocytes and neurons) (protein)
chain: ALEPVRATANFLAMVDNLQGDSGRGYYLEMLIGTPPQKVQILVDTGSSNFAVAGAPHSYIDTYFDSESSSTYHSKGFDVTVKYTQGSWTGFVGEDLVTIPKGFNSSFLVNIATIFESENFFLPGIKWNGILGLAYAALAKPSSSLETFFDSLVAQAKIPDIFSMQMCGAGLPVAGSGTNGGSLVLGGIEPSLYKGDIWYTPIKEEWYYQIEILKLEIGGQNLNLDCREYNADKAIVDSGTTLLRLPQKVFDAVVEAVARTSLIPEFSDGFWTGAQLACWTNSETPWAYFPKISIYLRDENASRSFRITILPQLYIQPMMGAGFNYECYRFGISSSTNALVIGATVMEGFYVVFDRAQRRVGFAVSPCAEIEGTTVSEISGPFSTEDIASNCVPAQALNEPILWIVSYALMSVCGAILLVLILLLLLPLHCRHAPRDPEVVNDESSLVRHRWK
relative amount of Aβ 1-19 and Aβ 1-20 normalized to Aβ1-40 (ProteinChip array coated with 6E10) [2]: BACE2 mediated cleavages (at +19 and +20 of Aβ) were much higher in cultured astrocytes as compared to neurons
